Results: patent US20180344812A1 (Scripps Research, published 2018)
Bridges are numbered along the chain shown (N, C = ends). Primed or numbered codes have the meaning given here. Where no end group is shown, it is not given here. [ ]: non-standard residue; d: D form. L1″ = C4 bis(bromoacetamide) staple without lipid, joins two Cys through thioethers; L4″ = octadecanedioic acid-PEG-ornithine staple, joins two Cys through thioethers; L2″ = myristic acid-PEG-ornithine staple, joins two Cys through thioethers; L6″ = as L5, made on Rink amide resin, joins two Cys through thioethers; L1 = C4 bis(bromoacetamide) staple without lipid; L4 = octadecanedioic acid-PEG-ornithine staple; L3 = myristic acid-PEG-PEG-ornithine staple; L5 = C18 diacid-Lys-PEG2-ornithine staple; L2 = myristic acid-PEG-ornithine staple; L6 = made as L5 but on Rink amide resin; L11 = not defined here; L12 = not defined here; L13 = not defined here; L7 = not defined here; L8 = not defined here; L9 = not defined here

B1: mTA 21: OXM (B) and L8 (peptide)
peptide: H[dS]QGTFTSDYSKYLDECAAKEFICWLMNTKRNRNNIA
modifications: linker 17-24 via L8; reading uncertain; also: printed as HsQGTFTSDYSKYLDEXAAKEFIXWLMNTKRNRNNIA
B2: mTA 20: OXM (B) and L7 (peptide)
peptide: H[dS]QGTFTSDYSKYLDECAAKEFICWLMNTKRNRNNIA
modifications: linker 17-24 via L7; reading uncertain; also: printed as HsQGTFTSDYSKYLDEXAAKEFIXWLMNTKRNRNNIA
B3: mTA 24: OXM (B) and L11 (peptide)
peptide: H[dS]QGTFTSDYSKYLDECAAKEFICWLMNTKRNRNNIA
modifications: linker 17-24 via L11; reading uncertain; also: printed as HsQGTFTSDYSKYLDEXAAKEFIXWLMNTKRNRNNIA
B4: mTA 25: OXM (B) and L12 (peptide)
peptide: H[dS]QGTFTSDYSKYLDECAAKEFICWLMNTKRNRNNIA
modifications: linker 17-24 via L12; reading uncertain; also: printed as HsQGTFTSDYSKYLDEXAAKEFIXWLMNTKRNRNNIA
B5: mTA 22: OXM (B) and L9 (peptide)
peptide: H[dS]QGTFTSDYSKYLDECAAKEFICWLMNTKRNRNNIA
modifications: linker 17-24 via L9; not fully specified; printed as HsQGTFTSDYSKYLDEXAAKEFIXWLMNTKRNRNNIA; reading uncertain
B6: mTA 26: OXM (B) and L13 (peptide)
peptide: H[dS]QGTFTSDYSKYLDECAAKEFICWLMNTKRNRNNIA
modifications: linker 17-24 via L13; reading uncertain; also: printed as HsQGTFTSDYSKYLDEXAAKEFIXWLMNTKRNRNNIA

Columns and labels:
Experiment in all cases: cell-based or functional assay
[1] = molecular target: human glucagon-like peptide 1 receptor (GLP-1R) (human, UniProt P43220 24-463)
[2] = molecular target: human glucagon receptor (GCGR) (human, UniProt P47871 26-477)
Sequence of human glucagon receptor (GCGR) (P47871 26-477): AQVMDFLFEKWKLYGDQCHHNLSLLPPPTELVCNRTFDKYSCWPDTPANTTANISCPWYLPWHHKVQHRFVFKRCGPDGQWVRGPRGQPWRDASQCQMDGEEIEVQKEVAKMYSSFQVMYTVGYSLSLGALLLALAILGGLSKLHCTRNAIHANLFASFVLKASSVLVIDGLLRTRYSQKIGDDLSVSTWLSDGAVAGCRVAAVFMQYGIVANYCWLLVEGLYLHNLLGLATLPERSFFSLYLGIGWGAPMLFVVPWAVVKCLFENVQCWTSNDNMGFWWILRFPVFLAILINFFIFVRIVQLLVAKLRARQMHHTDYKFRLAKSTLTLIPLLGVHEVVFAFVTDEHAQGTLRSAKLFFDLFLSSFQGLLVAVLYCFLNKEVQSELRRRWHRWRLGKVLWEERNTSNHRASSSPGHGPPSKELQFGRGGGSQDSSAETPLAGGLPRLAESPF

[3] = molecular target: T1, human Glucagon-like peptide 2 receptor (GLP-2R) (human, UniProt O95838 1-553)
T1 sequence (looked up): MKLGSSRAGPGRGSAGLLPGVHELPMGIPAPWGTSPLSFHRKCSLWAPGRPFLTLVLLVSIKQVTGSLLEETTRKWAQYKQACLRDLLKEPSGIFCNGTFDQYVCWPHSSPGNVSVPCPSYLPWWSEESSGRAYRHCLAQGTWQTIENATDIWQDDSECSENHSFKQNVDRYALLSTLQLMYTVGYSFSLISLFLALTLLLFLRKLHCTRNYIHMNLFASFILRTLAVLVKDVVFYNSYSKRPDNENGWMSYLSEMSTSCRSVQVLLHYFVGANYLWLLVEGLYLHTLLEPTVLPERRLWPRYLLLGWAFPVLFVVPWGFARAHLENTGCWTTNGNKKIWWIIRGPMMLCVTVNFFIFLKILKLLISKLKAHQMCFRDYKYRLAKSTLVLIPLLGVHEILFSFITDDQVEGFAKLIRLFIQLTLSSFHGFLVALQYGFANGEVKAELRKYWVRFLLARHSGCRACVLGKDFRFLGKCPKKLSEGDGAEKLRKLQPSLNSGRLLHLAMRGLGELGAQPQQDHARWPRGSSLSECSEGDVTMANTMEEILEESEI

Row | Binder | EC50, CRE-luciferase reporter in HEK293-GLP-1R-CRE cells [1] | EC50, CRE-luciferase reporter in HEK293-GCGR-CRE cells [2] | EC50, CRE-luciferase reporter in HEK293-GLP-2R-CRE cells [3]
1 | H[dS]QGTFTSDYSKYLDECAAKEFICWLMNTKRNRNNIA (linker 17-24 via L6″) [mTA 19: OXM (B) and L6] | 200 pM | – | –
2 | H[dS]QGTFTSDYSKYLDECAAKEFICWLMNTKRNRNNIA (linker 17-24 via L4″) [mTA 17: OXM (B) and L4] | 2000 pM | 3000 pM | –
3 | H[dS]QGTFTSDYSKYLDECAAKEFICWLMNTKRNRNNIA (linker 17-24 via L1″) [mTA 15: OXM (B) and L1] | 30 pM | 200 pM | –
4 | H[dS]QGTFTSDYSKYLDECAAKEFICWLMNTKRNRNNIA (linker 17-24 via L2″) [mTA 16: OXM (B) and L2] | 40 pM | 300 pM | –
5 | H[dS]QGTFTSDYSKYLDSCAAHDFVCWLLRA (linker 17-24 via L1) [mTA 27: GLP-1/Glucagon (A) and L1] | 200 pM | 40 pM | –
6 | H[dS]QGTFTSDYSKYLDECAAKEFICWLLRA (linker 17-24 via L2) [mTA 30: GLP-1/Glucagon (B) and L2] | 30 pM | 50 pM | –
7 | H[dS]QGTFTSDYSKYLDECAAKEFICWLMNTKRNRNNIA (linker 17-24 via L5) [mTA 18: OXM (B) and L5] | 200 pM | – | –
8 | B1 | 120 pM | 700 pM | –
9 | B2 | 17000 pM | 5400 pM | –
10 | B3 | 200 pM | 3000 pM | –
11 | H[dS]QGTFTSDYSKYLDSCAAHDFVCWLLRA (linker 17-24 via L2) [mTA 28: GLP-1/Glucagon (A) and L2] | 100 pM | 100 pM | –
12 | B4 | 100 pM | 500 pM | –
13 | H[dS]QGTFTSDYSKYLDECAAKEFICWLLNGGPSSGAPPPS (linker 17-24 via L6) [mTA 39: GLP-1/Glucagon (D) and L6] | 40 pM | 300 pM | –
14 | H[dS]QGTFTSDYSKYLDECAAKEFICWLLRA (linker 17-24 via L1) [mTA 29: GLP-1/Glucagon (B) and L1] | 30 pM | 30 pM | –
15 | H[dS]QGTFTSDYSKYLDECAAKEFICWLLRA (linker 17-24 via L4) [mTA 31: GLP-1/Glucagon (B) and L4] | 30 pM | 120 pM | –
16 | H[dS]QGTFTSDYSKYLDECAAKEFICWLLRA (linker 17-24 via L6) [mTA 33: GLP-1/Glucagon (B) and L6] | 50 pM | 400 pM | –

Row | Binder | EC50, CRE-luciferase reporter in HEK293-GLP-1R-CRE cells [1] | EC50, CRE-luciferase reporter in HEK293-GCGR-CRE cells [2] | EC50, CRE-luciferase reporter in HEK293-GLP-2R-CRE cells [3]
17 | H[dS]QGTFTSDYSKYLDECAAKEFICWLLRAGPSSGAPPPS (linker 17-24 via L4) [mTA 34: GLP-1/Glucagon (C) and L4] | 40 pM | 400 pM | –
18 | H[dS]QGTFTSDYSKYLDECAAKEFICWLLRA (linker 17-24 via L5) [mTA 32: GLP-1/Glucagon (B) and L5] | 300 pM | 1000 pM | –
19 | H[dS]QGTFTSDYSKYLDECAAKEFICWLLRAGPSSGAPPPS (linker 17-24 via L6) [mTA 36: GLP-1/Glucagon (C) and L6] | 300 pM | 500 pM | –
20 | H[dS]QGTFTSDYSKYLDECAAKEFICWLLNGGPSSGAPPPS (linker 17-24 via L4) [mTA 37: GLP-1/Glucagon (D) and L4] | 30 pM | 200 pM | –
21 | B5 | 40000 pM | 14000 pM | –
22 | B6 | 50 pM | 500 pM | –
23 | H[dS]QGTFTSDYSKYLDECAAKEFICWLLNGGPSSGAPPPS (linker 17-24 via L5) [mTA 38: GLP-1/Glucagon (D) and L5] | 40 pM | 400 pM | –
24 | H[dS]QGTFTSDYSKYLDECAAKEFICWLLRAGPSSGAPPPS (linker 17-24 via L5) [mTA 35: GLP-1/Glucagon (C) and L5] | 500 pM | 1000 pM | –
25 | HGDGSFSDEMNTILDNCAARDFICWLIQTKITD (linker 17-24 via L1) [mTA 46: GLP-2 (A) and L1] | – | – | 45 pM
26 | HGDGSFSDEMNTILDNCAARDFICWLIQTKITD (linker 17-24 via L6) [mTA 51: GLP-2 (A) and L6] | – | – | 700 pM
27 | HGDGSFSDEMNTILDNCAARDFICWLIQTKITD (linker 17-24 via L5) [mTA 50: GLP-2 (A) and L5] | – | – | 6400 pM
28 | HGDGSFSDEMNTILDNCAARDFICWLIQTKITD (linker 17-24 via L2) [mTA 47: GLP-2 (A) and L2] | – | – | 41 pM
29 | HGDGSFSDEMNTILDNCAARDFICWLIQTKITD (linker 17-24 via L3) [mTA 48: GLP-2 (A) and L3] | – | – | 45 pM
30 | HGDGSFSDEMNTILDNCAARDFICWLIQTKITD (linker 17-24 via L4) [mTA 49: GLP-2 (A) and L4] | – | – | 241 pM
31 | HGDGSFSDEMNTILDCLAARDFICWLIQTKITD (linker 16-24 via L1) [mTA 52: GLP-2 (C) and L1] | – | – | 5600 pM
